Paper PMC7858052, “Z-Ring-Associated Proteins Regulate Clustering of the Replication Terminus-Binding Protein ZapT in Caulobacter crescentus” (mBio, 2021)
Values belong to the molecule of their own block, whether it stands above or below them.

Key:
[1] = target: truncated variant of ZapT-His that lacks the C-terminal sensor domain (Caulobacter crescentus); experiment: SEC; Superdex 200 PC3.2/30; 25 mM Tris-HCl pH 7.5, 300 mM NaCl, 20% sucrose; 20 ul/min; fractions on SDS-15% PAGE, Coomassie; single proteins and mixtures (also His-ZauP + ZapT-His + ZapTΔC-His with ZapT-His as internal control)
[2] = target: the molecule itself; experiment: as above

stoichiometry N [1]: 2
Molecule: truncated variant of ZapT-His that lacks the C-terminal sensor domain (domain or fragment)

B1: ZapA with an N-terminal hexahistidine-MBP tag (natural protein, Caulobacter crescentus, UniProt A0A0H3CCW6 1-108, looked up)
chain: MAQVTIQVNGRPYMVGCEDGQEPHLTELARLFDRQVRQVSQDVGQLGETRLFLMGALLLADELSDMKLRLAHANAEIARMQQEGTKAEIAAIRALDAAAERIEKLATE
notes: ZapA, Z-ring-associated protein of Caulobacter crescentus NA1000, locus CCNA_03356; tagged protein printed as 56 kDa; primers NhisMBP-zapA-fwd/rev run from the start codon to the stop codon; also called His-ZapA; source: E. coli, purified (procedure in Text S1); not shown: His6-MBP, N-terminal, kept
stoichiometry N [2]: 4

B2: ZauP with an N-terminal hexahistidine-SUMO tag (natural protein, Caulobacter crescentus, UniProt A0A0H3CD23 1-127, looked up)
chain: MIPADSTALDLAVRRLERAVSQLEQRLAAKAAETQRALAAAATSAVALPLAVTEPSLFDDDERARLVADLEAAREREKALEEAGEQASVALGRAIAEIRAALGDESVANDLHAPGDDDDLFEDSEEA
notes: ZauP, functional ZapB homolog of Caulobacter crescentus NA1000, locus CCNA_03357; tagged protein printed as 26 kDa; primers Nhis-SUMO-zapB-P3/P4 run from the start codon to the stop codon; also called His-ZauP; source: E. coli, purified (procedure in Text S1); not shown: His6-SUMO, N-terminal, kept
stoichiometry N [2]: 6

B3: ZapT with a C-terminal hexahistidine tag (natural protein, Caulobacter crescentus, UniProt A0A0H3C832 1-141, looked up)
chain: MAKGPNAFRTISEAAEELGVPQHVLRFWETKFSFIRPMKRAGGRRFYRPQDIAVLNGVRTLLHSEGLTIKGVQKLHRDHGLAHVIAAGLGSNGSASLEAEYDYAPRGKERPVGEETRDRLAFALADLTAIKSRLDGLLARG
notes: tagged protein printed as 21 kDa; the last residue of ZapT is printed as Gly141; also called ZapT-His; wild-type ZapT-His; source: E. coli, purified (procedure in Text S1); not shown: His6, C-terminal, kept
stoichiometry N [2]: 2
